Earlier results, collected in publication PMC4017372.

Tests used:
[1] = molecular target: UreE (Helicobacter pylori) (UniProt B5Z672); assay: ITC
[2] = molecular target: HypB (Helicobacter pylori) (UniProt O25560)
UniProt O25560, sequence (O25560 whole entry): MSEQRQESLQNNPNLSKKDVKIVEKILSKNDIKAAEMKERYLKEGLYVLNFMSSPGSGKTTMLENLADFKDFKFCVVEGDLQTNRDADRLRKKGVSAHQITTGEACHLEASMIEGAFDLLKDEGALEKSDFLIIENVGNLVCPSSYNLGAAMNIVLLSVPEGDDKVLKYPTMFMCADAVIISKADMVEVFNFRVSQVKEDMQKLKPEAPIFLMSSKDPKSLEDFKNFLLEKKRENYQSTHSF

UniProt B5Z672, sequence (B5Z672 whole entry): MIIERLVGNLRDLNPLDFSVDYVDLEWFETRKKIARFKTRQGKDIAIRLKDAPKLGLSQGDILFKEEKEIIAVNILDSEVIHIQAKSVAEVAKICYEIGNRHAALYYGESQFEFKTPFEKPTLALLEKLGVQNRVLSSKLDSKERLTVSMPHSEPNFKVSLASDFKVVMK

| Substance | Kd [1] | Kd [2] |
| --- | --- | --- |
| UreG (from UniProt B6JPH1) | 4 µM |  |
| HypA (from UniProt P0A0U5) |  | 52 µM |
